Target: T1, Pox4 (Candida tropicalis, UniProt P06598)
T1 construct: made in house; host or cells: E. coli Rosetta II BL21, pET26b; crude cell lysate (10 ug per reaction)
Format: biochemical, Candida strain ATCC20336
Conditions: native isozyme
Protocol: To express an enzyme, a colony from each transformation of Rosetta cells was used to start a 5 ml overnight culture of LB containing the antibiotics kanamycin (to select for pET26b) and chloramphenicol (to select for a second plasmid found in Rosetta II cells that mediates improved translation of eukaryotic proteins expressed in E. coli) grown at 37° C. The next morning, the overnight culture was used to seed 30 ml of LB containing kanamycin and chloramphenicol to an OD600 reading of 0.1. The 30 ml cultures were grown at 37° C. for 2 hours and then placed on ice for 10 minutes. To induce expression, isopropyl-beta-D-thiogalactopyranoside (IPTG) was added to the culture to a final concentration of 0.1 mM. In some cases induction was performed using Novagen Overnight Express Autoinduction System 1 (CAT#71300-3). The cells were then shaken at 15° C. overnight to express the acyl CoA oxidase.
To test the activity of the acyl CoA oxidase, cells from the overnight induction were pelleted at 1046×g at 4° C. in 50 ml conical tubes. The cell pellets were resuspended in 1 ml of 50 mM KPO4, pH 7.6, 50 μM FAD buffer and then transferred to a 2 ml centrifuge tube. A Misonix Sonicator 3000 (QSonica, Newtown, Conn.) was used to lyse the cells, which were sonicated at a power setting of 2 for 2 pulses of 20 seconds each. […] The spectrophotometer was set to read for 5 minutes at 500 nm, 30° C. […]

B1: Pox4p: native acyl-CoA oxidase isozyme of Candida strain ATCC20336 (protein, UniProt P06598 2-709, looked up)
Acyl-coenzyme A oxidase 4: TFTKKNVSVSQGPDPRSSIQKERDSSKWNPQQMNYFLEGSVERSELMKALAQQMERDPILFTDGSYYDLTKDQQRELTAVKINRIARYREQESIDTFNKRLSLIGIFDPQVGTRIGVNLGLFLSCIRGNGTTSQLNYWANEKETADVKGIYGCFGMTELAHGSNVAGLETTATFDKESDEFVINTPHIGATKWWIGGAAHSATHCSVYARLIVDGQDYGVKTFVVPLRDSNHDLMPGVTVGDIGPKMGRDGIDNGWIQFSNVRIPRFFMLQKFCKVSAEGEVTLPPLEQLSYSALLGGRVMMVLDSYRMLARMSTIALRYAIGRRQFKGDNVDPNDPNALETQLIDYPLHQKRLFPYFVPPMSSPSVPSRLNTPSRPPWSNWTSPLKRTTPRLIFKSIDDMKSLFVDSGSLKSTATWLGAEAIDQCRQACGGHGHSSYNGFGKAYNDWVVQCTWEGDNNVLGMSVGKPIVKQVISIEDAGKTVRGSTAFLNQLKEYTGSNSSKVVLNTVADLDDIKTVIKAIEVAIIRLSQEAASIVKKESFDYVGAELVQLSKLKAHHYLLTEYIRRIDTFDQKELAPYLITLGKLYAATIVLDRFAGVFLTFNVASTEAITALASVQIPKLCAEVRPNVVAYTDSFQQSDMIVNSAIGRYDGDIYENYFDLVKLQNPPSKTKAPYSDALEAMLNRPTLDERERFQKSDETAAILSK
B1 was tested, and the substrate specificity was “broad substrate specificity”.
